The supplement of paper PMC10201428
± gives the standard deviation of the averaged measurements.

B1: library; a variant is named by its letters at N, in order (parent)
chain: AATGTTGTTGATGCAACCATAAAGTGATATTTAATAATTATTTATAATCAGCAACTTAACCACAAAACAACCATATATTGATATNTCACAAAACAACCATAANTTGATATTTTTGTGAATCGAGTATTTCAGCAAAACTACTGCAGTAAGAA

Legend:
[1] = variants of: B1; assay: relative integration efficiency (T-LR orientation) vs wild-type transposon end (log2 (normalized fold change)); transposon end mutated: left end; higher = more efficient transposition; conditions: with VchCAST RNA-guided transposition machinery (E. coli BL21(DE3) host, lacZ target)
Experimental: (§1)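 Pooled, barcoded VchCAST (Tn6677) mini-transposon donor libraries; each variable transposon-end sequence sits in a fixed pDonor mini-transposon context (10-bp barcode and cargo not included). Left- or right-end libraries were co-transformed with pEffector (TniQ-Cascade, TnsABC, lacZ crRNA, T7, 0.1 mM IPTG) into E. coli BL21(DE3) and grown 18 h at 37 C. T-LR and T-RL junction amplicons were sequenced; output/input barcode fold change was normalised to the mean of four wild-type barcodes and log2-transformed. Two biological replicates; zero-count/undetected variants carry floor values (-10 / -15), censored here. Barcode uncoupling by PCR recombination adds noise.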

[2] = variants of: B1; assay: relative integration efficiency (T-RL orientation) vs wild-type transposon end (log2 (normalized fold change)); transposon end mutated: left end; higher = more efficient transposition; conditions: with VchCAST RNA-guided transposition machinery (E. coli BL21(DE3) host, lacZ target)
Experimental: as §1

| Variant | relative integration efficiency (log2) [1] | relative integration efficiency (log2) [2] |
| --- | --- | --- |
| AATGTTGTTGATGCAACCATAAAATGATAATTAATAATTATTTATAATCAGCAACTTAACCACAAAACACCCATAAATTGATAATTAACAAAACACCCATAAATTGATATTGCTGTGAATCGAGTATTTCAGCAAAACTACTGCAGTAAGAA | 0.302 ± 0.58 | 0.326 ± 0.17 |
| AATGTTGTTGATGCAACCATAAAATGATAATTAATAATTATTTATAATCAGCAACTTAACCACAAAACAACCATAAAATGATAATTAACAAAACACCCATAAATTGATATTGCTGTGAATCGAGTATTTCAGCAAAACTACTGCAGTAAGAA | 0.461 ± 0.4 | 0.172 ± 0.12 |
| AATGTTGTTGATGCAACCATAAAATGATAATTAATAATTATTTATAATCAGCAACTTAACCACAAAACACCCATAAATTGATATTGCACAAAACAACCATATATTGATATCTCTGTGAATCGAGTATTTCAGCAAAACTACTGCAGTAAGAA | -0.456 ± 0.08 | -0.229 ± 0.18 |
| AATGTTGTTGATGCAACCATAAAATGATAATTAATAATTATTTATAATCAGCAACTTAACCACAAAACACCCATAAATTGATATTGCACAAAACACCCATAAATTGATATTGCTGTGAATCGAGTATTTCAGCAAAACTACTGCAGTAAGAA | 0.18 ± 0.5 | 0.313 ± 0.07 |
| AATGTTGTTGATGCAACCATAAAATGATAATTAATAATTATTTATAATCAGCAACTTAACCACAAAACACCCATAAATTGATAATTAACAAAACAACCATATATTGATATCTCTGTGAATCGAGTATTTCAGCAAAACTACTGCAGTAAGAA | -0.133 ± 0.92 | -0.0645 ± 0.27 |
| AATGTTGTTGATGCAACCATAAAATGATAATTAATAATTATTTATAATCAGCAACTTAACCACAAAACAACCATAAGTTGATATTTTACAAAACAACCATATATTGATATCTCTGTGAATCGAGTATTTCAGCAAAACTACTGCAGTAAGAA | -0.112 ± 0.15 | -0.456 ± 0.55 |
| AATGTTGTTGATGCAACCATAAAATGATAATTAATAATTATTTATAATCAGCAACTTAACCACAAAACACCCATAAATTGATAATTAACAAAACAACCATAAAATGATAATTATGTGAATCGAGTATTTCAGCAAAACTACTGCAGTAAGAA | -0.0484 ± 0.45 | -0.389 ± 0.28 |
| AATGTTGTTGATGCAACCATAAAATGATAATTAATAATTATTTATAATCAGCAACTTAACCACAAAACAACCATAAAATGATAATTAACAAAACACCCATAAATTGATAATTATGTGAATCGAGTATTTCAGCAAAACTACTGCAGTAAGAA | 0.0142 ± 0.25 | 0.0999 ± 0.18 |
| AATGTTGTTGATGCAACCATAAAATGATAATTAATAATTATTTATAATCAGCAACTTAACCACAAAACAACCATATATTGATATCTCACAAAACACCCATAAATTGATAATTATGTGAATCGAGTATTTCAGCAAAACTACTGCAGTAAGAA | -0.0456 ± 0.31 | -0.302 ± 0.28 |
| AATGTTGTTGATGCAACCATAAAATGATAATTAATAATTATTTATAATCAGCAACTTAACCACAAAACAACCATAAGTTGATATTTTACAAAACACCCATAAATTGATAATTATGTGAATCGAGTATTTCAGCAAAACTACTGCAGTAAGAA | 0.553 ± 0.26 | 0.0249 ± 0.25 |
| AATGTTGTTGATGCAACCATAAAATGATAATTAATAATTATTTATAATCAGCAACTTAACCACAAAACAACCATAAGTTGATATTTTACAAAACAACCATAAAGTGATATTTATGTGAATCGAGTATTTCAGCAAAACTACTGCAGTAAGAA | 0.395 ± 0.079 | -0.232 ± 0.36 |
| AATGTTGTTGATGCAACCATAAAATGATAATTAATAATTATTTATAATCAGCAACTTAACCACAAAACAACCATAAGTTGATATTTTACAAAACACCCATAAATTGATATTGCTGTGAATCGAGTATTTCAGCAAAACTACTGCAGTAAGAA | -0.263 ± 0.26 | 0.0641 ± 0.26 |
| AATGTTGTTGATGCAACCATAAAATGATAATTAATAATTATTTATAATCAGCAACTTAACCACAAAACAACCATATATTGATATCTCACAAAACAACCATATATTGATATCTCTGTGAATCGAGTATTTCAGCAAAACTACTGCAGTAAGAA | 0.116 ± 0.42 | -0.31 ± 0.36 |
| AATGTTGTTGATGCAACCATAAAATGATAATTAATAATTATTTATAATCAGCAACTTAACCACAAAACAACCATAAGTTGATATTTTACAAAACAACCATAAAATGATAATTATGTGAATCGAGTATTTCAGCAAAACTACTGCAGTAAGAA | 0.503 ± 0.28 | -0.582 ± 0.57 |
| AATGTTGTTGATGCAACCATAAAATGATAATTAATAATTATTTATAATCAGCAACTTAACCACAAAACACCCATAAATTGATATTGCACAAAACACCCATAAATTGATAATTATGTGAATCGAGTATTTCAGCAAAACTACTGCAGTAAGAA | 0.0588 ± 0.23 | -0.265 ± 0.38 |
| AATGTTGTTGATGCAACCATAAAATGATAATTAATAATTATTTATAATCAGCAACTTAACCACAAAACAACCATATATTGATATCTCACAAAACACCCATAAATTGATATTGCTGTGAATCGAGTATTTCAGCAAAACTACTGCAGTAAGAA | 0.199 ± 0.4 | 0.0766 ± 0.11 |
| AATGTTGTTGATGCAACCATAAAATGATAATTAATAATTATTTATAATCAGCAACTTAACCACAAAACACCCATAAATTGATAATTAACAAAACAACCATAAAGTGATATTTATGTGAATCGAGTATTTCAGCAAAACTACTGCAGTAAGAA | 0.182 ± 0.22 | 0.0306 ± 0.22 |
| AATGTTGTTGATGCAACCATAAAATGATAATTAATAATTATTTATAATCAGCAACTTAACCACAAAACACCCATAAATTGATATTGCACAAAACAACCATAAAATGATAATTATGTGAATCGAGTATTTCAGCAAAACTACTGCAGTAAGAA | -0.21311 ± 4.7e-05 | -0.36 ± 0.27 |
| AATGTTGTTGATGCAACCATAAAATGATAATTAATAATTATTTATAATCAGCAACTTAACCACAAAACACCCATAAATTGATATTGCACAAAACAACCATAAAGTGATATTTATGTGAATCGAGTATTTCAGCAAAACTACTGCAGTAAGAA | -0.0684 ± 0.51 | -0.533 ± 0.11 |
